# B1: TβRII-SE: 80 amino acid soluble endogenous isoform of human TGF-β receptor II lacking the transmembrane domain, SEQ ID No. 2 (protein, listed as Homo sapiens)
# chain: MGRGLLRGLWPLHIVLWTRIASTIPPHVQKSVNNDMIVTDNNGAVKFPQLCKFCDVRFSTCDNQKSCFSKVHYEGKKKAW
# System: hASCs cells
# Assay: Cytokine Array G5 of supernatants of lentivirally transduced hASCs
# Format: cell-based, human
# Parameters: key to IL-6* secreted by hASC / IGFBP-4 secreted by hASC / IL-7 secreted by hASC / LIF secreted by hASC / TNF-α secreted by hASC / FLT3-L secreted by hASC / SCF secreted by hASC / LIGHT secreted by hASC / IL-3 secreted by hASC / Oncostatin M secreted by hASC / FGF-7 secreted by hASC / FGF-9 secreted by hASC / Angiogenin secreted by hASC / BDNF secreted by hASC / NT-3 secreted by hASC / EGF secreted by hASC / NT-4 secreted by hASC / PIGF secreted by hASC / TIMP-1 secreted by hASC / GRO secreted by hASC / TIMP-2 secreted by hASC / CXCL1 (GROα) secreted by hASC / INF-γ secreted by hASC / CXCL6 (GCP-2) secreted by hASC / IL-2 secreted by hASC / CXCL9 (MIG) secreted by hASC / CXCL10 (IP-10) secreted by hASC / Osteopontin secreted by hASC / CXCL12 (SDF-1) secreted by hASC / Osteoprotegerin secreted by hASC / CXCL13 (BLC) secreted by hASC / CCL1 (I-309) secreted by hASC / Leptin secreted by hASC / CCL2 (MCP-1) secreted by hASC / CCL4 (MIP1b) secreted by hASC / GDNF secreted by hASC / CCL7 (MCP-3) secreted by hASC / IL-10 secreted by hASC / CCL8 (MCP-2) secreted by hASC / IL-13 secreted by hASC / CCL17 (TARC) secreted by hASC / IL-1α secreted by hASC / CCL18 (PARC) secreted by hASC / IL-1β secreted by hASC / CCL20 (MIP3a) secreted by hASC / CCL24 (Eotaxin-2) secreted by hASC / IL-12 p70 secreted by hASC / CCL26 (Eotaxin-3) secreted by hASC / IL-15 secreted by hASC / G-CSF secreted by hASC / IGF-1 secreted by hASC / M-CSF secreted by hASC / IGFBP-1 secreted by hASC / GM-CSF secreted by hASC / IGFBP-3 secreted by hASC / TNF-β secreted by hASC / Onc M secreted by hASC / VEGF secreted by hASC / CXCL5 (ENA-78) secreted by hASC / MIF secreted by hASC / CCL11 (Eotaxin) secreted by hASC / IL-5 secreted by hASC / TGF-β1 secreted by hASC: ↑: Increase or decrease of cytokines levels are referred to the levels secreted by cells transduced with the control vector Lt.eGFP; ↓: Increase or decrease of cytokines levels are referred to the levels secreted by cells transduced with the control vector Lt.eGFP; UC: unchanged levels with respect to cells transduced with the control vector Lt.eGFP; Abs: absent in mock transducer cells control; Abs: absent in mock transducer cells control
# Experimental: Furthermore, the effect of TβRII-SE recombinant isoform was measured on a panel of 80 cytokines secreted by hASCs cells (FIG. 16). Cells were transduced with either control Lt-GFP, the TGF-β1 inhibitor Lt. TβRII-DN, or Lt-TβRII-SE and incubated in the presence or absence of exogenous TGF-β1. Collected supernatants were used to analyze the cytokines in a Cytokine Array G5 (Raybiotech, Inc. Norcross, USA).
# Increase or decrease of cytokines levels are referred to the levels secreted by cells transduced with the control vector Lt.eGFP either in the presence (paracrine) or absence (autocrine) of exogenous TGF-β1. UC: unchanged levels with respect to cells transduced with the control vector Lt.eGFP. Abs: absent in mock transducer cells control. Dark grey boxes: decreased to undetected levels or absent in the supernatant of cells transduced with control vector Lt.eGFP.
# A cytokine/chemokine array kit G5 (Ray Biotech Inc., Norcross, Ga.) was used to detect a panel of 80 secreted cytokines as recommended by the manufacturer. hASCs P7 untransduced or transduced with lentiviral vectors were grown for 72 h in a medium supplemented with 0.1% BSA. Supernatants were collected, filtered and frozen after collection. For densitometry analysis of the arrays, Typhoon 9410 Variable mode Imager (GE Healthcare Life Sciences) was used, and signal intensity values were measured using the Image analysis software ImageQuant TL 7.0 (GE Healthcare Life Sciences). Microarray data were analyzed with RayBio® Antibody Array Analysis Tool. Good data quality and adequate normalization were ensured using internal control normalization without background. Any ≥1.5-fold increase or ≤0.65-fold decrease in signal intensity for a single analyte between samples or groups may be considered a measurable and significant difference in expression, provided that both sets of signals are well above background (Mean background+3 standard deviations, accuracy≈99%).
# [1] = Autocrine TGF-β1 (no exogenous TGF-β1), vs Lt.eGFP control
# [2] = Paracrine TGF-β1 (3 pg/μl), vs Lt.eGFP control
molecule,measurement,setting,value
B1,OPG secretion,"ASC, high TGF-β1 concentration, vs Lt.eGFP-transduced control cells",dramatic drop
same,Angiogenin secreted by hASC,[1],UC
same,BDNF secreted by hASC,[1],UC
same,CCL1 (I-309) secreted by hASC,[1],UC
same,CCL2 (MCP-1) secreted by hASC,[1],UC
same,CCL4 (MIP1b) secreted by hASC,[1],UC
same,CCL7 (MCP-3) secreted by hASC,[1],UC
same,CCL8 (MCP-2) secreted by hASC,[1],↑
same,CCL17 (TARC) secreted by hASC,[1],UC
same,CCL18 (PARC) secreted by hASC,[1],↓
same,CCL20 (MIP3a) secreted by hASC,[1],abs
same,CCL24 (Eotaxin-2) secreted by hASC,[1],↓
same,CCL26 (Eotaxin-3) secreted by hASC,[1],abs
same,CXCL1 (GROα) secreted by hASC,[1],UC
same,CXCL6 (GCP-2) secreted by hASC,[1],UC
same,CXCL9 (MIG) secreted by hASC,[1],UC
same,CXCL10 (IP-10) secreted by hASC,[1],UC
same,CXCL12 (SDF-1) secreted by hASC,[1],UC
same,CXCL13 (BLC) secreted by hASC,[1],abs
same,EGF secreted by hASC,[1],abs
same,FGF-7 secreted by hASC,[1],↓
same,FGF-9 secreted by hASC,[1],UC
same,FLT3-L secreted by hASC,[1],↓
same,G-CSF secreted by hASC,[1],↓
same,GDNF secreted by hASC,[1],UC
same,GM-CSF secreted by hASC,[1],↑
same,GRO secreted by hASC,[1],UC
same,IGF-1 secreted by hASC,[1],↓
same,IGFBP-1 secreted by hASC,[1],UC
same,IGFBP-3 secreted by hASC,[1],↓
same,IGFBP-4 secreted by hASC,[1],abs
same,IL-1α secreted by hASC,[1],↓
same,IL-1β secreted by hASC,[1],abs
same,IL-2 secreted by hASC,[1],UC
same,IL-3 secreted by hASC,[1],UC
same,IL-6* secreted by hASC,[1],UC
same,IL-7 secreted by hASC,[1],↓
same,IL-10 secreted by hASC,[1],UC
same,IL-12 p70 secreted by hASC,[1],UC
same,IL-13 secreted by hASC,[1],↓
same,IL-15 secreted by hASC,[1],abs
same,INF-γ secreted by hASC,[1],↓
same,LIF secreted by hASC,[1],UC
same,LIGHT secreted by hASC,[1],abs
same,Leptin secreted by hASC,[1],↓
same,M-CSF secreted by hASC,[1],UC
same,NT-3 secreted by hASC,[1],UC
same,NT-4 secreted by hASC,[1],UC
same,Oncostatin M secreted by hASC,[1],↓
same,Osteopontin secreted by hASC,[1],abs
same,Osteoprotegerin secreted by hASC,[1],UC
same,PIGF secreted by hASC,[1],↓
same,SCF secreted by hASC,[1],abs
same,TIMP-1 secreted by hASC,[1],UC
same,TIMP-2 secreted by hASC,[1],UC
same,TNF-α secreted by hASC,[1],↓
same,Angiogenin secreted by hASC,[2],UC
same,BDNF secreted by hASC,[2],Abs
same,CCL1 (I-309) secreted by hASC,[2],abs
same,CCL2 (MCP-1) secreted by hASC,[2],UC
same,CCL4 (MIP1b) secreted by hASC,[2],abs
same,CCL8 (MCP-2) secreted by hASC,[2],UC
same,CCL11 (Eotaxin) secreted by hASC,[2],UC
same,CCL17 (TARC) secreted by hASC,[2],UC
same,CCL20 (MIP3a) secreted by hASC,[2],UC
same,CCL24 (Eotaxin-2) secreted by hASC,[2],abs
same,CCL26 (Eotaxin-3) secreted by hASC,[2],abs
same,CXCL1 (GROα) secreted by hASC,[2],abs
same,CXCL5 (ENA-78) secreted by hASC,[2],UC
same,CXCL6 (GCP-2) secreted by hASC,[2],↓
same,CXCL9 (MIG) secreted by hASC,[2],↓
same,CXCL10 (IP-10) secreted by hASC,[2],↓
same,CXCL12 (SDF-1) secreted by hASC,[2],abs
same,CXCL13 (BLC) secreted by hASC,[2],↓
same,EGF secreted by hASC,[2],↓
same,FGF-7 secreted by hASC,[2],Abs
same,FGF-9 secreted by hASC,[2],UC
same,FLT3-L secreted by hASC,[2],UC
same,G-CSF secreted by hASC,[2],↓
same,GDNF secreted by hASC,[2],Abs
same,GM-CSF secreted by hASC,[2],↓
same,GRO secreted by hASC,[2],UC
same,IGF-1 secreted by hASC,[2],Abs
same,IGFBP-1 secreted by hASC,[2],Abs
same,IGFBP-3 secreted by hASC,[2],↓
same,IGFBP-4 secreted by hASC,[2],↑
same,IL-1α secreted by hASC,[2],↓
same,IL-1β secreted by hASC,[2],UC
same,IL-2 secreted by hASC,[2],Abs
same,IL-3 secreted by hASC,[2],↓
same,IL-5 secreted by hASC,[2],↓
same,IL-6* secreted by hASC,[2],UC
same,IL-7 secreted by hASC,[2],↓
same,IL-10 secreted by hASC,[2],↓
same,IL-12 p70 secreted by hASC,[2],↓
same,IL-13 secreted by hASC,[2],↓
same,IL-15 secreted by hASC,[2],↓
same,INF-γ secreted by hASC,[2],↓
same,LIF secreted by hASC,[2],UC
same,LIGHT secreted by hASC,[2],↓
same,M-CSF secreted by hASC,[2],abs
same,MIF secreted by hASC,[2],UC
same,NT-3 secreted by hASC,[2],↓
same,NT-4 secreted by hASC,[2],Abs
same,Onc M secreted by hASC,[2],abs
same,Osteopontin secreted by hASC,[2],↓
same,PIGF secreted by hASC,[2],↓
same,SCF secreted by hASC,[2],UC
same,TGF-β1 secreted by hASC,[2],UC
same,TIMP-1 secreted by hASC,[2],UC
same,TNF-α secreted by hASC,[2],↓
same,TNF-β secreted by hASC,[2],↓
same,VEGF secreted by hASC,[2],UC
same,HGF secretion upregulation,absence of exogenous TGF-β1,7.65 times
same,HGF secretion upregulation,presence of exogenous TGF-β1,4.16 times

# From patent US11072647B2, “TGF-receptor II isoform, fusion peptide, methods of treatment and methods in vitro” (Onsejo Nacional DE Investigation Cientiticay Tecnica, priority 2013, dated 2021)
